Earlier results on 1 substance are cited in PMC4475429.

As a reminder, the Kd is the equilibrium constant for the complex coming apart.

The data set deals with PKA RIα (Homo sapiens) (UniProt P10644).
PKA RIα (Homo sapiens), sequence (P10644 whole entry): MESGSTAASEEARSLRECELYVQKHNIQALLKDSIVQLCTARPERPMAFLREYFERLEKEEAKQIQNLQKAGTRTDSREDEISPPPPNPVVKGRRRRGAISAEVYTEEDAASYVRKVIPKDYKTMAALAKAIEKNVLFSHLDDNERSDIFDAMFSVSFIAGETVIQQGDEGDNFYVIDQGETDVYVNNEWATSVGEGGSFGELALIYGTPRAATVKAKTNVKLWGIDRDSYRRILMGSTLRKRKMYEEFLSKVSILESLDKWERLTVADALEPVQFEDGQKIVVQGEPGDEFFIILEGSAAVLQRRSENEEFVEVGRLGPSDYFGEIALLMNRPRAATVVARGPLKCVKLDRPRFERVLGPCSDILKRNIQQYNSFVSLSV

Ht31, sequence (Q12802 whole entry): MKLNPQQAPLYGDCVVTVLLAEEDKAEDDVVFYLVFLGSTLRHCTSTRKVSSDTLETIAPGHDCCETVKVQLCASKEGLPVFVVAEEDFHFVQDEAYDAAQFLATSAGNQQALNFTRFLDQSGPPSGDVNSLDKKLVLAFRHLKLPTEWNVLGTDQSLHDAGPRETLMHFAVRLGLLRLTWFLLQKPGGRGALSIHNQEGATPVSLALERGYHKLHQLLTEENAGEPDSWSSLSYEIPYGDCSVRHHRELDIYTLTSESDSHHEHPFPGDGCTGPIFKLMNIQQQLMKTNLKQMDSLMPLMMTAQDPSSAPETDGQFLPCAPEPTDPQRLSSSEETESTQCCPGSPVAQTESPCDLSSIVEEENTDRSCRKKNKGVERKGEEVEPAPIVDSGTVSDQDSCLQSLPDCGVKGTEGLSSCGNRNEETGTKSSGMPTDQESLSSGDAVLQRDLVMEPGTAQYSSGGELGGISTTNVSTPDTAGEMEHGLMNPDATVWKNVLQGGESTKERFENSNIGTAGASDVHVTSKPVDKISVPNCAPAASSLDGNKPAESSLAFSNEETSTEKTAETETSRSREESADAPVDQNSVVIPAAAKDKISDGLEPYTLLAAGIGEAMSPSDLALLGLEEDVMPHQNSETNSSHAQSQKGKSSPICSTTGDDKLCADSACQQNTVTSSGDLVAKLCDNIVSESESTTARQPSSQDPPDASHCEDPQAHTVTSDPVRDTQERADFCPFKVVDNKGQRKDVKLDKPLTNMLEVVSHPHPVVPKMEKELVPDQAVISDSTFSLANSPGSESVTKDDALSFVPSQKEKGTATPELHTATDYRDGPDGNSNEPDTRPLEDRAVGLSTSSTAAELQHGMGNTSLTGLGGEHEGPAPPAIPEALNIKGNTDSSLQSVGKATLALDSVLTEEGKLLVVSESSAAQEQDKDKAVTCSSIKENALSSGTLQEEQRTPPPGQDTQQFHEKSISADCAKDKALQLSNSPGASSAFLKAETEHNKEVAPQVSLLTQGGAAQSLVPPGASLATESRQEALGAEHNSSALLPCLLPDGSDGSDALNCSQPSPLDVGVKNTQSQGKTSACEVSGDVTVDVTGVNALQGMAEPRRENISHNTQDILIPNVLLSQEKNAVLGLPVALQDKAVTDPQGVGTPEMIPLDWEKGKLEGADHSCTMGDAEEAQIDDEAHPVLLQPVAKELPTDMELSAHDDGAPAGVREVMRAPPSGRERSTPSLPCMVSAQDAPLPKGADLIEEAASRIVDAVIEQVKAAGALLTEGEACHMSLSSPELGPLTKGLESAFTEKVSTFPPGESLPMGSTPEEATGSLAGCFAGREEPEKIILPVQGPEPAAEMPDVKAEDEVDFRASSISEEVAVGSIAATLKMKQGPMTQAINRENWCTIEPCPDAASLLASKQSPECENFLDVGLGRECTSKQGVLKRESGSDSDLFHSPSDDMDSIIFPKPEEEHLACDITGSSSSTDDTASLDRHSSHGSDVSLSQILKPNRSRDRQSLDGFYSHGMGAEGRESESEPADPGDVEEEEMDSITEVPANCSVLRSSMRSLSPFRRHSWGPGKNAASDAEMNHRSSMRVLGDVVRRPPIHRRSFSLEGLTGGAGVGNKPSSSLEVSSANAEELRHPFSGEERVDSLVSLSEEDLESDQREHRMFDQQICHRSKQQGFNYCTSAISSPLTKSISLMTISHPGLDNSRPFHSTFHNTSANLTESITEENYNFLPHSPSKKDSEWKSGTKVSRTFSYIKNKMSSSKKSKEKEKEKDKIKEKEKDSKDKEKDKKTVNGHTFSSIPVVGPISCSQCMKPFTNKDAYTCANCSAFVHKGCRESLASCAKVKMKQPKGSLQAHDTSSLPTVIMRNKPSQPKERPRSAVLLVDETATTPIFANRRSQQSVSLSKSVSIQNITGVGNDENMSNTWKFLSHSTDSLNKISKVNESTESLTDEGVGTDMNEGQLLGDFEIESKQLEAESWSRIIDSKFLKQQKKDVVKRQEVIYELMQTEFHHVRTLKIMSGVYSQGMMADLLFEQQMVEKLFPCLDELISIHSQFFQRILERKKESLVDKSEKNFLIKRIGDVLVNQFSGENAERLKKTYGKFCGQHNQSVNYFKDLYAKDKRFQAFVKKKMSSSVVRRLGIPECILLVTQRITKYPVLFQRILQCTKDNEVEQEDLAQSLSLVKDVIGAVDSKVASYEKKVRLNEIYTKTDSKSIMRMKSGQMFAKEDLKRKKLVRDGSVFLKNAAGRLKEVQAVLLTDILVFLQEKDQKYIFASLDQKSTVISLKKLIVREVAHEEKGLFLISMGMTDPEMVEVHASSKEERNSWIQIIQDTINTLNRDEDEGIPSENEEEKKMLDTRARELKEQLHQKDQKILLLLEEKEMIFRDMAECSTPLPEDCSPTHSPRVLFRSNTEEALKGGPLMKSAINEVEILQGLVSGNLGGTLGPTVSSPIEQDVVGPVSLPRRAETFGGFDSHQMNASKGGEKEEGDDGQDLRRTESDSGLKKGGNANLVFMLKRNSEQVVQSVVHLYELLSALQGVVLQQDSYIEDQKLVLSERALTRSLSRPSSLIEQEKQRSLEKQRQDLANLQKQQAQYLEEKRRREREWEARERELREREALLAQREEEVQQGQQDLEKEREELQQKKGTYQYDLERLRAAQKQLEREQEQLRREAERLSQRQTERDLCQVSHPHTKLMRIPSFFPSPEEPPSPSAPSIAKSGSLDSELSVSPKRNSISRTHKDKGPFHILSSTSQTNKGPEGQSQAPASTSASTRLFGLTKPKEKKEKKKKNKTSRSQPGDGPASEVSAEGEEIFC

Regarding Ht31 (from UniProt Q12802), the Kd is 2100 nM.
